Laboratory results: US20260103686A1, “MICROBIAL STRAIN, PROTEIN, AND METHOD FOR PRODUCING GALLIC ACID USING MICROBIAL STRAIN OR PROTEIN” (UNIVERSITY OF TSUKUBA, priority 2022, published 2026)

What was measured:
[1] = Reaction kinetic analysis of purified enzymes, substrate PCA (NADPH absorbance at 340 nm); format: biochemical; settings: relative to PaPobA
Protocol: Using the purified enzyme liquids of HgPobA, HgPobA-TY, PoPobA, HyPobA and PaPobA described above, a reaction kinetic analysis was conducted.

[2] = Analysis of gallic acid-producing activities of purified enzymes (HPLC); format: biochemical; settings: 2 mM PCA, 0.5 mM NADPH, 10 μg enzyme, 30° C., 30 minutes, pH 7.9
Protocol: Using the purified enzyme liquids of HyPobA, PoPobA, HgPobA-TY and PaPobA described above, the gallic acid-producing activities were analyzed.
By adding 10 μM FAD, 0.5 mM NADPH, 2 mM PCA and 10 μg of the respective purified enzyme liquids to 20 mM Tris-HCl buffer (pH 7.9), 100 μL of reaction liquids were prepared.

B1: HgPobA: Hylemonella gracilis-derived PobA, protocatechuic acid 5-hydroxylase (SEQ ID NO: 20) (protein, listed as Hylemonella gracilis)
chain: MSYPTRTQVAIIGAGPSGLMLGALLHKAGIDTVVLERQSGDYVLGRIRAGVLEQVTMDLMDEIGVGARMHQEGLVHGGFDMLFQGQRHRIDMNRLTGGQNVMVYGQTEVTRDLMDARQQAGLTTIYEAANVAIHDFGSGKPRVTYEKDGKTHELQCDFIAGCDGFHGVCRDTVKKSASASAIREYEKVYNFGWLGLLSDTPPVHHELIYVNSERGFALCSQRSATRSRYYLQVPLTDKVEQWSDQAFWDELKLRLDPQAREHLVTGPSIEKSIAPLRSFVTEPLRFGRLFLAGDAGHIVPPAGAKGLNLAATDVKYLSAALTEFYQGKSEAGINHYSERCLKRIWRAERFSWWFTSLMHRFPENGEIGQKLQEAELDYIVHSETGARSVAENFVGLPLDFGA
With B1 the “kcat value for PCA compared with that of PaPobA” value [1] was “higher kcat values than that of PaPobA”.

B2: HgPobA-TY: mutant protein of HgPobA with two mutations T302A and Y393F (protein, listed as Hylemonella gracilis)
chain: B1 chain
For B2, the “Km value for PCA compared with that of PaPobA” value [1] was “one third or less” and the “relative activity of producing gallic acid from PCA (PaPobA regarded as 1)” value (“relative activity” for short) [2] was “eight”.

B3: PoPobA: Polaromonas sp.-derived PobA, protocatechuic acid 5-hydroxylase (SEQ ID NO: 22) (protein, listed as Polaromonas sp.)
chain: MRTQVGIVGAGPAGLMLSHMLHLEGIESVIIERASREHVQSRLRAGVLEHGTVDMLRELGLGERIGKIGLEQHAIDFRFGGESHRLDFHQATNGRSAWVYPQHELVTDLMNARMQAGAEILFETPVTRIDGLHTSKPTVHFEQGGEPRELVCDFVVGCDGFRGVCRDAIPDTVLKTYDRVYPFGWLGILAEAPAPTREITWGCHEEGFAMLSIRSPSVTRLYLQCEPDDDPDHWSDDHIWAELHKRLDVPGMPPVNEGKIMQKGVTAMRSFLAEPMQYGKLFLAGDAAHIVPPTGAKGLNSAMADVKVLGRGLAEKYRRGADHLLERYSQICLKRMWLVQRFSAGLCTMVHQFPGDNAFVRRLQRADLDYMTGTAAGRLAFSENFTGLPIE
For B3, the “kcat value for PCA compared with that of PaPobA” value [1] was “higher kcat values than that of PaPobA” and the “relative activity” value [2] was 20 times.

B4: HyPobA: Hydrogenophaga sp.-derived PobA, protocatechuic acid 5-hydroxylase (SEQ ID NO: 21) (protein, listed as Hydrogenophaga sp.)
chain: MRTQVGIIGAGPAGLMLAHMLHLEGIESVIIERSKREHVQNRLRAGVLEQGTVEMMRELGLGERIGQLGLEQHRIDFRFGGESHPIDFHEATGGRSAWVYPQHEVVKDLMAARTAAGAQMLFETPVTAIEGIDGTRPVVRFEKDGVAGELHCDFVVGCDGFRGISRRAIPAREGQVHDRIYPFGWLGILAEAPPATNEVTWGCHEDGFAMMSIRTPSVTRLYLQCEPDENPDHWSDDRIWSALHKRLDVPGLPPINEGRITQKGVTAMRSFLFEPMQHGRLFLAGDAAHIVPPTGAKGLNSAMADVKVLARALEQHYQRGSQDLLARYSKTCLKRMWLVQRFSAGLCTMVHSFAGDSSFVRRLQRADLDYMTGTTAGRLQFSENFTGLPID
In the case of B4, the “kcat value for PCA compared with that of PaPobA” value [1] is reported as “higher kcat values than that of PaPobA” and the “relative activity” value [2] is reported as 20 times.

B5: PaPobA: Pseudomonas aeruginosa-derived PobA (SEQ ID NO: 28), known enzyme with high PCA-hydroxylating activity (protein, listed as Pseudomonas aeruginosa)
chain: MKTQVAIIGAGPSGLLLGQLLHKAGIDNVILERQTPDYVLGRIRAGVLEQGMVDLLREAGVDRRMARDGLVHEGVEIAFAGQRRRIDLKRLSGGKTVTVYGQTEVTRDLMEAREACGATTVYQAAEVRLHDLQGERPYVTFERDGERLRLDCDYIAGCDGFHGISRQSIPAERLKVFERVYPFGWLGLLADTPPVSHELIYANHPRGFALCSQRSATRSRYYVQVPLSEKVEDWSDERFWTELKARLPSEVAEKLVTGPSLEKSIAPLRSFVVEPMQHGRLFLAGDAAHIVPPTGAKGLNLAASDVSTLYRLLLKAYREGRGELLERYSAICLRRIWKAERFSWWMTSVLHRFPDTDAFSQRIQQTELEYYLGSEAGLATIAENYVGLPYEEIE
In the case of B5, the “relative activity” value [2] is reported as 1 times.
